The record followed here is PMC5560242.

The target of data set [1] is T1, MBNL1-zf12 (Homo sapiens, UniProt Q9NR56 1-92).
T1 sequence: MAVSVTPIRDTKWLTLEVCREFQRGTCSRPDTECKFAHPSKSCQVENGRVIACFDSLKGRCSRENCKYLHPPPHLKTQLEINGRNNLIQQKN
Nature of the data set: BLI. (BLI is a label-free optical method that tracks binding on a fibre tip over time.)

The target in data set [2] is T1, MBNL1-zf12. Nature of the data set: BLI. This is another data set of the same source.
The target of data set [3] is T1, MBNL1-zf12. Nature of the data set: NMR HSQC titration.

Like-named read-outs stand apart in the source and are kept apart here.

In the case of GUCUCGCUUUUCCCC (ssRNA) [hcTnT15], binding with MBNL1-zf12 [1] was put at a Kd of 130 nM.

As to GUCUCGCUGUUCCCC (ssRNA) [hcTnT15m (U103G)], the Kd – broadly, the concentration at which binding is half-saturated – with MBNL1-zf12 [2] worked out at 500 nM.

As to CUCGCUUUUCCCC (ssRNA) [hcTnT13], the binding result with MBNL1-zf12 [3] was “binds”.
